{"source": "paper PMC4720564", "about": "(Chemical communications (Cambridge, England), 2016)", "key": {"[1]": {"tested_on": "[C-]#[N+]/C=C\\c1c[nH]c2ccccc12", "test": "purified protein", "assay_type": "biochemical, Fischerella ambigua", "details": "co-substrate GPP, MgCl2 10 mM, pH 8.0"}, "WelP1": {"target": "WelP1 (Hapalosiphon welwitschii, UniProt A0A067YVH5)", "test": "LC-MS product formation", "assay_type": "biochemical", "details": "co-substrate GPP; MgCl2 5 mM; Tris 50 mM pH 8.0"}}}
{"molecule": "AmbP1 (Fischerella ambigua UTEX 1903)", "values": [{"measurement": "Km", "setting": "[1]", "value": "15.4 ± 3.2", "unit": "µM"}, {"measurement": "kcat", "setting": "[1]", "value": "6.9 ± 1.2", "unit": "s⁻¹"}]}
{"molecule": "[C-]#[N+]/C=C\\c1c[nH]c2ccccc12", "note": "[(Z)-1, cis-indolyl vinyl isonitrile]", "values": [{"measurement": "LC-MS product formation", "setting": "WelP1", "value": "The enzymatic products derived from WelP1 and FidP1 are perfectly identical to that from AmbP1"}]}
